{"source": "patent US20210047373A1", "about": "“BETA BARREL POLYPEPTIDES AND METHODS FOR THEIR USE” (UNIVERSITY OF WASHINGTON, priority 2018, published 2021)", "molecules": {"B1": {"name": "mFAP2b: SEQ ID NO:69; mFAP2.5 with V67I (protein)", "chain": "MSRAAQLLPGTWQVTMTNEDGQTSQGQWHFQPRSPYTMDIVAQGTISDGRPIVGYGKATVKTPDTLDIDITYPSLGNIKAQGQITMDSPTQFKWDATTKGENDFHGRLTGTLQRQE", "modifications": "(1)..(1) optionally absent"}, "B2": {"name": "mFAP2a: SEQ ID NO:66 (protein)", "chain": "B1 chain with V14A, M16F", "modifications": "(1)..(1) optionally absent"}}, "key": {"[1]": {"settings": "unbound, free DFHBI in liquid buffer; Paige et al., 2011; cited from earlier work"}, "[2]": {"test": "Photophysical characterization (absorbance, excitation, emission, extinction coefficient, quantum yield)", "format": "physicochemical"}, "[3]": {"settings": "cited from earlier work"}, "[4]": {"test": "Chromophore titration, fit to single binding site isotherm: DFHO", "settings": "n=1 titration; ± SD of the fit; Table 3C", "procedure": "(§1) Table 3A-C. Brightness and chromophore affinities of selected mFAP variants. Fluorescence brightness measurements at 10 μM (top table) and 100 nM (middle table) chromophore concentrations were normalized from 0 to 1 across all three chromophores (DFHBI, DFHBI-1T, and DFHO), and the normalized values for two protein concentrations tested for each chromophore at each chromophore concentration were averaged and standard deviations of the average computed. Reported values are the normalized averages and standard deviations of the means for each chromophore concentration and each chromophore. Reported relative densitometry values are the relative densitometry values normalized from 0 to 1 and represent how well each design expresses relative to one another in Lemo21(DE3) E. coli cultures. Thermodynamic dissociation constants (bottom table) are obtained by non-linear least squares fitting of chromophore titrations (n=1) to a single binding site isotherm, and values reported with the standard deviation of the fit. Where the obtained Kd values are below the protein concentration tested, the Kd and standard deviation of the fit are reported in parentheses. Values with “N/D” were not determined."}, "[5]": {"test": "Fluorescence brightness with DFHBI-1T", "format": "biochemical", "settings": "normalized 0 to 1 across all three chromophores; average ± SD of two protein concentrations", "procedure": "as §1"}, "[6]": {"test": "Fluorescence brightness with DFHO", "format": "biochemical", "settings": "normalized 0 to 1 across all three chromophores; average ± SD of two protein concentrations", "procedure": "as §1"}, "[7]": {"test": "Chromophore titration, fit to single binding site isotherm: DFHBI", "settings": "for Kd: n=1 titration, ± SD of the fit, Table 3C, read-out: DFHBI Kd", "procedure": "(§2) Fluorescence binding assay. Protein-activated DFHBI fluorescence signals were measured in 96-well plate format (Corning 3650) on a Synergy neo2 plate reader (BioTek, Inc) with λex=450 nm or 460 nm and λem=500 nm or 510 nm. Binding reactions were performed at […] in PBS pH7.4 buffer. Protein concentrations were determined by 280 nm absorbance as described above. DFHBI (Lucerna, Inc) were resuspended in DMSO as instructed to make 100 mM stock and diluted in PBS to 0.5-10 μM. Approximate emission spectra were recorded for active designs from 490 to 600 nm.\nas §1"}, "[8]": {"system": "E. coli cells", "test": "Confocal imaging of E. coli expressing mFAP2a or mFAP2b labeled with chromophore", "format": "cell-based", "settings": "for Chromophore selectivity, DFHBI versus DFHBI-1T: E. coli imaging", "from_the_text": "FIG. 20: Characterization of brighter and chromophore-specific mFAP variants (mFAP2a and mFAP2b). (a) Design model of de novo β-barrel variant mFAP2b protein backbone (cartoon) bound to small molecule chromophore DFHBI (sticks). (b, c) Chemical structures of the chromophores DFHBI and DFHBI-1T, respectively. (d, e) In vitro titration of (d) DFHBI or (e) DFHBI-1T with purified mFAP2, mFAP2b, and mFAP2a proteins. mFAP2a/DFHBI, mFAP2a/DFHBI-1T, and mFAP2b/DFHBI complexes are brighter than the mFAP2/DFHBI complex. mFAP2a has higher affinity toward DFHBI compared to mFAP2b. mFAP2a binds DFHBI-1T with higher affinity than mFAP2 and the complex has brighter fluorescence than the DFHBI systems. Error bars represent standard deviation of the mean of 8 technical replicates. Shown are the non-linear least squares fits to a single binding-site isotherm equation (lines). […] (f-i) The images on the left of each panel were acquired using a laser scanning confocal fluorescence microscope and show pseudo-colored normalized fluorescence intensity values per pixel. Scale bars represent 10 microns. In the design models shown on the right of each panel the residues unique to mFAP2b (V13, M15) and residues unique to mFAP2a (A13, F15) are shown as sticks. Intermolecular hydrogen bonds to the chromophore are shown as black dotted lines. […]\nIt was hypothesized that a commercially-available variant of the DFHBI chromophore with a trifluoromethyl group, DFHBI-1T (FIG. 20 c), could pack into the void without causing steric clashes with nearby amino acid side-chains and could therefore fit into the mFAP2a binding pocket, while […] would result in steric clashes in the mFAP2b pocket. Studying the fluorescence of mFAP2a and mFAP2b in the presence of DFHBI-1T experimentally validated this hypothesis. […] Based on the absolute and relative quantum yields measured for these four complexes, the brightest protein-chromophore combination is mFAP2a with DFHBI-1T, with an absolute quantum yield of 12.9% (˜3.5-fold dimmer than EGFP)."}, "[9]": {"test": "DFHBI titration of Ca2+-responsive mFAP variants in excess or absence of Ca2+", "format": "binding", "settings": "DFHBI titration in absence and presence of Ca^2+, n=1", "from_the_text": "FIG. 23. In vitro fluorescence characterization of Ca^2+-responsive mFAP variants. […] Normalized fluorescence values (n=1) are fit to a sigmoid equation using non-linear least squares fitting (lines). […] Error bars represent the standard deviation of the mean of 3 technical replicates. The means are fit to a sigmoid equation (for positive allostery) or inverse sigmoid equation (for negative allostery) with Hill coefficients of 1 using non-linear least squares fitting (lines) to extract reported Kd values in Table 5.\nDFHBI Kd^+(in excess Ca^2+), DFHBI Kd^−(in absence of Ca^2+), and Ca^2+Kd (in excess DFHBI) are computed by fitting the normalized fluorescence readouts from titrations to a single binding site isotherm equation with Hill coefficient of 1 using non-linear least squares fitting. Standard deviations of the fit are reported. Hill coefficients are reported for fitting the titration data to a single binding site isotherm with variable Hill coefficient using non-linear least squares fitting, and the standard deviation of the fit are reported. For positive allosteric modulators, Kd^−/Kd^+ is reported, and for negative allosteric modulators, Kd^+/Kd^− is reported. […]"}, "[10]": {"test": "Fluorescence activation / brightness with DFHBI", "format": "biochemical", "settings": "for Fluorescence brightness, 100 nM DFHBI / Fluorescence brightness, 10 μM DFHBI: normalized 0 to 1 across all three chromophores, average ± SD of two protein concentrations", "procedure": "as §2, §1"}, "[11]": {"test": "Chromophore titration, fit to single binding site isotherm: DFHBI-1T", "settings": "n=1 titration; ± SD of the fit; Table 3C", "procedure": "as §1"}, "[12]": {"system": "fixed COS-7 cells", "test": "Photostability under continuous wave imaging", "format": "cell-based", "settings": "endoplasmic reticulum, 50 μM DFHBI, frame 1 to frame 200", "procedure": "FIG. 21: Super-resolution microscopy and photostability of mFAP2a and mFAP2b. (a-g) To show the application of the mFAP system in super-resolution microscopy, mFAP2a and mFAP2b were fused to a designed protein polymerizing into a filament (DHF119). (a) The maximum diameter of the DHF119 fiber fused to the 6×His-tagged mFAP2b was estimated to be ˜22 nm based on the computational design models. (b-d) The DHF119-GS-mFAP2a-6×His fiber was labeled at 5.78 μM DFHBI-1T and (e-f) the DHF119-GS-mFAP2b-6×His was labeled at 1.83 μM DFHBI. Both systems were imaged with (b,e) fluorescence widefield microscopy and (c,f) fluorescence localization microscopy. Scale bars are 1 micron. (d,g) Normalized average intensity profiles between the yellow arrowheads shown in the widefield image (black line) or localization reconstruction (grey line) estimate the diameter of the fluorescent filament. The mean and standard deviation of the mean of the full width half maximum (FWHM) values of the three intensity profiles are annotated, 11-k) Photostability of mFAP2a and mFAP2b complexes with DFHBI and DFHBI-1T compared to AcGFP1. […] Normalized fluorescence intensity images are shown for four regions of interest (ROIs). (h, i) Frames 1 (left) to 200 (right) were acquired under continuous wave imaging at 0.885 Hz (1.13 s/frame). Scale bars are 10 microns. […]"}, "[13]": {"settings": "previously reported value, Table 4"}}, "note": "Numbering of substitutions follows the chain as printed. In names and notes the source's numbering stands. Read-outs that look alike come from different tables or passages of the source. Marks after values point to notes of the source that are not given here.", "data": [{"molecule": "CC1=N/C(=C\\c2cc(F)c(O)c(F)c2)C(=O)N1C", "note": "[DFHBI, (Z)-4-(3,5-difluoro-4-hydroxybenzylidene)-1,2-dimethyl-1H-imidazol-5(4H)-one]", "values": [{"measurement": "pKa", "setting": "[1]", "result": 5.5}, {"measurement": "Extinction Coefficient", "setting": "[2]; Table 2", "result": "31,935 M^−1cm^−1"}, {"measurement": "Absolute Quantum Yield", "setting": "[2]; integrating sphere, Table 2", "result": 0.001}, {"measurement": "λabs", "setting": "[2]; peak absorbance wavelength, Table 2", "result": 418, "unit": "nm"}, {"measurement": "Absolute Quantum Yield", "setting": "[3]; previously reported value [1], Table 4", "result": "0.001^#"}, {"measurement": "λabs", "setting": "[3]; [13]", "result": "418^†# nm"}, {"measurement": "λem", "setting": "[3]; [13]", "result": "489^† nm"}, {"measurement": "λex", "setting": "[3]; [13]", "result": "423^† nm"}, {"measurement": "Reported Quantum Yield", "setting": "[3]; previously reported value", "result": "0.0007^†"}, {"measurement": "Relative Quantum Yield", "setting": "[3]; reported value (ref 25), Table 2", "result": "0.0007***"}]}, {"molecule": "B1", "values": [{"measurement": "Kd", "setting": "[4]", "result": "9.01 ± 1.91", "unit": "µM"}, {"measurement": "Fluorescence brightness, 100 nM DFHBI-1T", "setting": "[5]", "result": "0.01 ± 0.0"}, {"measurement": "Fluorescence brightness, 10 μM DFHBI-1T", "setting": "[5]", "result": "0.01 ± 0.0"}, {"measurement": "Fluorescence brightness, 100 nM DFHO", "setting": "[6]", "result": "0.01 ± 0.0"}, {"measurement": "Fluorescence brightness, 10 μM DFHO", "setting": "[6]", "result": "0.01 ± 0.0"}, {"measurement": "Weaker affinity for the chromophore than mFAP2", "setting": "[7]; DFHBI", "result": "~14.1", "unit": "fold"}, {"measurement": "Kd", "setting": "[7]", "result": "1.67 ± 0.08", "unit": "µM"}, {"measurement": "Fluorescent signal in E. coli with DFHBI-1T", "setting": "[8]; 10 μM chromophore", "result": "does not give a fluorescent signal"}, {"measurement": "Chromophore selectivity, DFHBI versus DFHBI-1T", "setting": "[8]", "result": "pronounced chromophore selectivity"}, {"measurement": "Allostery between Ca^2+ and DFHBI binding", "setting": "[9]", "result": "no allostery"}, {"measurement": "DFHBI complex brighter than DFHBI-1T complex", "setting": "[10]; FIG. 20 d,e", "result": "~70", "unit": "fold"}, {"measurement": "Brighter than mFAP2.4", "setting": "[10]; neutral pH", "result": "~1.3", "unit": "fold"}, {"measurement": "Brighter than mFAP2.5", "setting": "[10]; neutral pH", "result": "~1.2", "unit": "fold"}, {"measurement": "Fluorescence brightness, 100 nM DFHBI", "setting": "[10]", "result": "0.82 ± 0.02"}, {"measurement": "Fluorescence brightness, 10 μM DFHBI", "setting": "[10]", "result": "1.0 ± 0.0"}, {"measurement": "Brighter fluorescence than mFAP1", "setting": "[10]; protein at 10-fold higher concentration than DFHBI, peak emission 511 nanometers", "result": "approximately 4.5"}, {"measurement": "Kd", "setting": "[11]", "result": "42.2 ± 6.03", "unit": "µM"}]}, {"molecule": "B2", "values": [{"measurement": "Kd", "setting": "[4]", "result": "8.47 ± 1.99", "unit": "µM"}, {"measurement": "Absolute quantum yield with DFHBI-1T", "setting": "[2]", "result": 12.9, "unit": "%"}, {"measurement": "Brightness, times dimmer than EGFP", "setting": "[2]; with DFHBI-1T", "result": "~3.5", "unit": "fold"}, {"measurement": "Fluorescence brightness, 100 nM DFHBI-1T", "setting": "[5]", "result": "0.59 ± 0.06"}, {"measurement": "Fluorescence brightness, 10 μM DFHBI-1T", "setting": "[5]", "result": "0.92 ± 0.05"}, {"measurement": "Fluorescence brightness, 100 nM DFHO", "setting": "[6]", "result": "0.03 ± 0.01"}, {"measurement": "Fluorescence brightness, 10 μM DFHO", "setting": "[6]", "result": "0.04 ± 0.0"}, {"measurement": "Kd", "setting": "[7]", "result": "0.0546 ± 0.01", "unit": "µM"}, {"measurement": "Chromophore selectivity, DFHBI versus DFHBI-1T", "setting": "[8]", "result": "pronounced chromophore promiscuity"}, {"measurement": "Photostability compared to AcGFP1", "setting": "[12]", "result": "higher fluorescent signal is retained"}, {"measurement": "Brighter fluorescence than mFAP2b", "setting": "[10]; low DFHBI concentration (554.88 nM), neutral pH", "result": "~1.3", "unit": "fold"}, {"measurement": "Fluorescence brightness, 100 nM DFHBI", "setting": "[10]", "result": "1.0 ± 0.0"}, {"measurement": "Fluorescence brightness, 10 μM DFHBI", "setting": "[10]", "result": "0.77 ± 0.12"}, {"measurement": "Kd", "setting": "[11]", "result": "3.7 ± 0.56", "unit": "µM"}]}]}
